Experiments:
[1] = biological target: T1, Fc tagged human TNFR1 (Sino Biological) (human, UniProt P19438 22-211, limits assumed); test: SPR, Biacore T200 single cycle kinetics, receptor-Fc captured on Protein A chip, TNF 1.67-15 nM
T1 construct: Bought reagent; also called hTNFR1; hTNFR1-Fc; not shown: Fc tag of the bought protein
T1 sequence (looked up): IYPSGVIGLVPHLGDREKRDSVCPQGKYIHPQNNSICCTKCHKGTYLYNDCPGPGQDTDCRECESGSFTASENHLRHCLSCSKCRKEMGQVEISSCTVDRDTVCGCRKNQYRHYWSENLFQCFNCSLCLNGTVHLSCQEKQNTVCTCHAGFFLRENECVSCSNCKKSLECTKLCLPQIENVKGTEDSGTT
Method: (§1) Single cycle kinetic analysis was performed using a Biacore T200 (serial no. 1909913) running Biacore T200 Evaluation Software V2.0.1 (Uppsala, Sweden). All experiments were run at 25° C. with HBS-P+ running buffer (pH 7.4) (GE Healthcare, Little Chalfont, UK).
(§2) Due to the limit in the number of available flow cells for analysis (three Fc per analysis, Fc2, Fc3 and Fc4, with Fc1 always being used as blank reference for non-specific subtraction), receptor binding was assessed in two separate overlapping runs using either: hTNFR1 (Fc2), hTNFR2 (Fc3) and mTNFR1 (Fc4), or; hTNFR1 (Fc2), […] and mTNFR2 (Fc4). Receptors were diluted in running buffer to a concentration of ˜4 μg/mL and at the start of each cycle loaded onto Fc2, Fc3 and Fc4 of a Protein A chip (GE Healthcare, Little Chalfont, UK) at a flow rate of 10 μL/min to give an RU of 40-100. The surface was then allowed to stabilise. Single cycle kinetic data was obtained at a flow rate of 45 μL/min. […] The association phase for the three injections of increasing concentrations of TNF was monitored for 240 seconds and a single dissociation phase was measured for 2700 seconds following the last injection of TNF. Regeneration of the Protein A surface was conducted using 10 mM glycine-HCl pH 1.5. The signal from the reference channel Fc1 (no receptor) was subtracted from that of Fc2, Fc3 and Fc4 to correct for differences in non-specific binding to a reference surface.

[2] = biological target: T2, Fc tagged mouse TNFR1 (Sino Biological) (mouse, UniProt P25118 22-212, limits assumed); test: as above
T2 construct: Bought reagent; also called mTNFR1; mTNFR1-Fc; not shown: Fc tag of the bought protein
T2 sequence (looked up): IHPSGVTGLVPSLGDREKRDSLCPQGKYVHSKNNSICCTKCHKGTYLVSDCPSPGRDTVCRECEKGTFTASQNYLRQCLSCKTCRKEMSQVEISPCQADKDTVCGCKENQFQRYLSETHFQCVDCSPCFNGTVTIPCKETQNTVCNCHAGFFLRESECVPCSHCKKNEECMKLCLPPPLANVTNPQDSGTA
Method: as §1, §2

[3] = biological target: T1, Fc tagged human TNFR1 (Sino Biological); test: SPR, Biacore single cycle kinetics, stability study, after 1 year at -20° C.
Method: as §2
(§3) At day zero (prior to freezing) and following thawing on ice after 3 months and 1 year the following assays were performed: [0341] SDS-PAGE [0342] OD280 nm [0343] Single cycle Biacore for binding to hTNFR1, hTNFR2 and mTNFR1

[4] = biological target: T2, Fc tagged mouse TNFR1 (Sino Biological); test: as above
Method: as §2, §3

[5] = biological target: T3, Fc tagged human TNFR2 (Sino Biological) (human, UniProt P20333 23-257); test: as above
T3 construct: Bought reagent; also called hTNFR2; hTNFR2-Fc; not shown: Fc tag of the bought protein
T3 sequence (looked up): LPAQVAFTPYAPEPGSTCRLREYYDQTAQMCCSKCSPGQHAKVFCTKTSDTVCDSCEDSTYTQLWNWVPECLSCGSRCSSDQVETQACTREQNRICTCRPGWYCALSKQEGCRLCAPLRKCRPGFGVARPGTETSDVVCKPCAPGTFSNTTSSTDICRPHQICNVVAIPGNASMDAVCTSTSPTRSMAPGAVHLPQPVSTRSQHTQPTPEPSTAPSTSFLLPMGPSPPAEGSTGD
Method: as §2, §3

[6] = biological target: T1, Fc tagged human TNFR1 (Sino Biological); test: SPR, Biacore T200 multi cycle kinetics, receptor-Fc captured on Protein A chip, TNF 1.25-40 nM, 1:1 model
Method: (§4) Multi cycle kinetics analysis of binding to hTNFR1, hTNFR2, mTNFR1 and mTNFR2 was performed on the 10 lead variants using a Biacore T200 (serial no. 1909913) instrument running Biacore T200 Evaluation Software V3.0.1 (Uppsala, Sweden) to characterise further the binding to these receptors.
(§5) As with the single cycle kinetics, receptor binding was assessed in two separate experiments. In the first set of experiments binding to hTNFR1 (Fc2), hTNFR2 (Fc3) and mTNFR1 (Fc4) was assessed. In the second set of experiments the extent of mTNF2 (Fc4) binding was assessed using hTNFR1 (Fc2) and hTNFR2 (Fc3) as controls. All receptors were diluted in running buffer to a concentration of ˜4 μg/mL and at the start of each cycle loaded onto Fc2, Fc3 and Fc4 of a Protein A CM5 chip and captured at a flow rate of 10 μL/min to give an RU of ˜40-100. The surface was then allowed to stabilise. All kinetic data was obtained using a flow rate of 75 μl/min to minimise any potential mass transfer effects. […] The association phase of TNF was monitored for 280 seconds and the dissociation phase was measured for 2100 seconds. […] Regeneration of the Protein A surface was conducted using two injections of 10 mM glycine-HCL pH 1.5 at the end of each cycle. The signal from the reference channel Fc1 was subtracted from that of Fc2, Fc3 and Fc4 to correct for differences in non-specific binding to a reference surface, and a global Rmax parameter was used in the 1-to-1 binding model.

[7] = biological target: T2, Fc tagged mouse TNFR1 (Sino Biological); test: as above
Method: as §4, §5

[8] = biological target: T3, Fc tagged human TNFR2 (Sino Biological); test: as above
Method: as §4, §5

B1: TNF mutein B2 (ligand)
chain: VRSSSRTPSDKPVAHVVANPQAEGQLQWLNRRANALLANGVELRDNQLVVPSEGLYLIYSQVLFKGQGCPSTHVLLTHTISRITASYSGKVNLLSAIKSPCQRETPEGAEAKPWYEPIYLGGVFQLEKGDRLSAEINRPDYLDFAESGQVYFGIIAL
notes: Human TNF mutein, TASYSG at positions 84-89; not shown: C-terminal FLAG tag and His6 tag from vector pANT65
Kd [1]: 0.0164 nM | Kd [2]: 0.0256 nM | Kd [3]: 0.039 nM | Kd [4]: 0.0851 nM | Kd [5]: 0.21 nM | Kd [6]: 0.0216 nM | Kd [7]: 0.177 nM | Kd [8]: 0.407 nM
